This is an account of results in patent US20200317768A1 (published 2020).

Assay [1] addresses T1, cynomolgus monkey FcγRIIa1 extracellular domain, His-tagged (cynomolgus monkey).
T1 construct: also called cyno FcγRIIa1; cynoFcgRIIa1
T1 chain: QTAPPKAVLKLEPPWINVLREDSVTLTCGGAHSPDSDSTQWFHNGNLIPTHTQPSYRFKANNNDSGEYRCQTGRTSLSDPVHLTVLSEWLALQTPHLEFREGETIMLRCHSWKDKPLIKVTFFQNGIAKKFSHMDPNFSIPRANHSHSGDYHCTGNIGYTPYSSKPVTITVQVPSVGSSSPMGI
In words: SPR; KD of SG1 / KD of variant.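 Also: relative to parent M103205H795-SG1 carrying the SG1 human heavy chain constant region.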 A general note: SPR reads the build-up and loss of mass on a sensor chip optically.

The target in assay [2] is T2, human FcγRIIaR extracellular domain, His-tagged (human, UniProt P12318 34-217).
T2 construct: also called human FcγRIIa (type R); FcgRIIaR
T2 chain: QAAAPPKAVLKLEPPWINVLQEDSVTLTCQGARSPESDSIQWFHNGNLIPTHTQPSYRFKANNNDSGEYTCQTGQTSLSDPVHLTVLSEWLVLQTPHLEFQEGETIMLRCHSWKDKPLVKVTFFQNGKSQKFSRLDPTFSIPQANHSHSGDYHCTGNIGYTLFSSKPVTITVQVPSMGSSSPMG
Kind of assay: SPR; KD of SG1 / KD of variant.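 Also: relative to parent M103205H795-SG1 carrying the SG1 human heavy chain constant region.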

The target in assay [3] is T3, cynomolgus monkey FcγRIIa3 extracellular domain, His-tagged (cynomolgus monkey).
T3 construct: also called cyno FcγRIIa3; cynoFcgRIIa3
T3 chain: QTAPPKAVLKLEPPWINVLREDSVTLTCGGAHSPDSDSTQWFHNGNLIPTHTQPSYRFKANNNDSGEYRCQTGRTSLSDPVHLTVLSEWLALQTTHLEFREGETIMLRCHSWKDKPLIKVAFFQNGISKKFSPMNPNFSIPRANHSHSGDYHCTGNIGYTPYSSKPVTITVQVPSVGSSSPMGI
Kind of assay: SPR; KD of SG1 / KD of variant.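 Also: relative to parent M103205H795-SG1 carrying the SG1 human heavy chain constant region.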

The target of assay [4] is T4, cynomolgus monkey FcγRIIb extracellular domain, His-tagged (cynomolgus monkey).
T4 construct: also called cyno FcγRIIb; cynoFcγRIIb
T4 chain: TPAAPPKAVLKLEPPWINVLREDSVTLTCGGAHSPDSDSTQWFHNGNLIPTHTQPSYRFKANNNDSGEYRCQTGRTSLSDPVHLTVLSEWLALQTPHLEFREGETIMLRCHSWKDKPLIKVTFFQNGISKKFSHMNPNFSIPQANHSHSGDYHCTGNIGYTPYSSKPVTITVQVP
In words: SPR; KD of SG1 / KD of variant.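 Also: relative to parent M103205H795-SG1 carrying the SG1 human heavy chain constant region.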

Assay [5] concerns the target T5, cynomolgus monkey FcγRIIa2 extracellular domain, His-tagged (cynomolgus monkey).
T5 construct: also called cyno FcγRIIa2; cynoFcgRIIa2
T5 chain: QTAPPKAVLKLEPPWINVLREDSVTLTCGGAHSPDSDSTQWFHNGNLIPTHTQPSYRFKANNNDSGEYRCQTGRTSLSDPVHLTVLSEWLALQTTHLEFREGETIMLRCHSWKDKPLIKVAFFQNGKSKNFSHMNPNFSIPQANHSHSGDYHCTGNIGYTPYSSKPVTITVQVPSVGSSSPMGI
In words: SPR; KD of SG1 / KD of variant.

Assay [6] addresses T6, human FcγRIIaH extracellular domain, His-tagged (human, UniProt P12318 34-217).
T6 construct: also called human FcγRIIa (type H); FcgRIIaH
T6 sequence: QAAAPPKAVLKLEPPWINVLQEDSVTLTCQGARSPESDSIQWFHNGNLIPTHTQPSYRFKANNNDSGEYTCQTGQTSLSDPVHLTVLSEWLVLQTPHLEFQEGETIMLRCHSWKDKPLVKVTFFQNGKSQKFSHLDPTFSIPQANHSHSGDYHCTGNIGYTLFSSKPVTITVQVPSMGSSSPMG
In words: SPR; KD of SG1 / KD of variant.

The target in assay [7] is T7, cynomolgus monkey FcγRIIIaS extracellular domain, His-tagged (cynomolgus monkey, UniProt Q8SPW2 21-206 at identity 1.00)).
T7 construct: also called cyno FcγRIIIaS; cynoFcγRIIIaS
T7 chain: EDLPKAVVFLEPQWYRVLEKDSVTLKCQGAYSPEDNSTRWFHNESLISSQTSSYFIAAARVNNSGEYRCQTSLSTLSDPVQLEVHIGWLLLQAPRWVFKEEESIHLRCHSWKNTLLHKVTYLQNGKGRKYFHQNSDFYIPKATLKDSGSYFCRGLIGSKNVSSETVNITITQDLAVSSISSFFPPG
In words: SPR; KD of SG1 / KD of variant.

For assay [8], the target named is T8, human FcγRIIIaV extracellular domain, His-tagged (human, UniProt P08637 17-208).
T8 construct: also called FcgRIIIaV
In words: SPR; KD of SG1 / KD of variant.

In assay [9] the target is T9, cynomolgus monkey FcγRIIa2 extracellular domain, C-terminal His-tag (cynomolgus monkey).
T9 construct: also called cyno FcγRIIa2; cynoFcgRIIa2; not shown: His-tag added to C-terminus
T9 chain: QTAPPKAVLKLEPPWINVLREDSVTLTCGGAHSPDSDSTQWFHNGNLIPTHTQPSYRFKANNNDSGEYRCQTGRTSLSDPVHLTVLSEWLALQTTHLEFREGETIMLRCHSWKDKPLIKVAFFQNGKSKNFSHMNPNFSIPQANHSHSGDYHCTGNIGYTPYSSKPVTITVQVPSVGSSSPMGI
In words: SPR (Biacore), antibody captured, FcgR analyte, 25 C.

T8 sequence (P08637 17-208 F176V): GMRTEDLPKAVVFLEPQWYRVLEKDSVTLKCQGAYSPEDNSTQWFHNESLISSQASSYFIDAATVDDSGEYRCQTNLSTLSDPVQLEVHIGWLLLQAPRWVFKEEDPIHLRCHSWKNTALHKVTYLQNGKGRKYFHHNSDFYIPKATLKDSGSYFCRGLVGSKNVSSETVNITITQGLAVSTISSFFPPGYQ

B1: MS_M103205H795-SG1/M103202L889-SK1 (antibody, human IgG1, kappa)
heavy: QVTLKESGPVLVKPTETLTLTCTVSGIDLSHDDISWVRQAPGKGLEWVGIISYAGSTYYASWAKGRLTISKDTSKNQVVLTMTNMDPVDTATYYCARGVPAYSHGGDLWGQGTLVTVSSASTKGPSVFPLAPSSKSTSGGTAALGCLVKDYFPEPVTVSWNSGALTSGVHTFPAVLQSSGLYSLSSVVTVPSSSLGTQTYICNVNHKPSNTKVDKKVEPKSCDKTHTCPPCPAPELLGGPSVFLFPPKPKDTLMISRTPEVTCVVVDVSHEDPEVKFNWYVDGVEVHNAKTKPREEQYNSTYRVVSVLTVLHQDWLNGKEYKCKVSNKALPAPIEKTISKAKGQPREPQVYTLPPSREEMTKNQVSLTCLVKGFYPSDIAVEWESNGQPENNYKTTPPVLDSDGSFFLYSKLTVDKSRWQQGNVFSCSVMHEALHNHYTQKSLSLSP
light: DIVMTQSPATLSLSPGERATLSCTSSQSVYHANWLSWFQQKPGQPPKLLIYWASTLAYGVPSRFSGSGSGTDFTLTISSLQPEDAATYYCAGGYGGGRYAFGQGTKVEIKRTVAAPSVFIFPPSDEQLKSGTASVVCLLNNFYPREAKVQWKVDNALQSGNSQESVTEQDSKDSTYSLSSTLTLSKADYEKHKVYACEVTHQGLSSPVTKSFNRGEC
notes: Parent antibody of the Fc variants; heavy chain constant region SG1, light chain M103202L889-SK1; also called MS1032LO06-SG1
Turning to B1, the “KD fold (SG1 = 1)” value in assay [1], in assay [2], in assay [3], in [4], in assay [5] and in assay [6] was 1 fold in each case. For the same molecule, the “KD fold (SG1 = 1)” value in [7] and in assay [8] was 1 fold throughout.

B2: M103205H795-MY310/M103202L889-SK1 (antibody, human IgG1, kappa)
heavy: QVTLKESGPVLVKPTETLTLTCTVSGIDLSHDDISWVRQAPGKGLEWVGIISYAGSTYYASWAKGRLTISKDTSKNQVVLTMTNMDPVDTATYYCARGVPAYSHGGDLWGQGTLVTVSSASTKGPSVFPLAPSSKSTSGGTAALGCLVKDYFPEPVTVSWNSGALTSGVHTFPAVLQSSGLYSLSSVVTVPSSSLGTQTYICNVNHKPSNTKVDKKVEPKSCDKTHTCPPCPAPELLTGPSVFLFPPKPKDTLMISRTPEVTCVVVDVSEEDPEVKFNWYVDGVEVHNAKTKPREEQYNSTYRVVSVLTVLHQDWLNGKEYKCKVSNTALPKPIEKTISKAKGQPREPQVYTLPPSREEMTKNQVSLTCLVKGFYPSDIAVEWESNGQPENNYKTTPPVLDSDGSFFLYSKLTVDKSRWQQGNVFSCSVMHEALHNHYTQKSLSLSP
light: DIVMTQSPATLSLSPGERATLSCTSSQSVYHANWLSWFQQKPGQPPKLLIYWASTLAYGVPSRFSGSGSGTDFTLTISSLQPEDAATYYCAGGYGGGRYAFGQGTKVEIKRTVAAPSVFIFPPSDEQLKSGTASVVCLLNNFYPREAKVQWKVDNALQSGNSQESVTEQDSKDSTYSLSSTLTLSKADYEKHKVYACEVTHQGLSSPVTKSFNRGEC
The term Kd denotes the free concentration of one partner at which half of the binding sites on the other are occupied at equilibrium, for simple one-to-one binding. B2 registered a Kd in assay [9] of 2900 nM.

B3: M103205H795-MY321/M103202L889-SK1 (antibody, human IgG1, kappa)
heavy: QVTLKESGPVLVKPTETLTLTCTVSGIDLSHDDISWVRQAPGKGLEWVGIISYAGSTYYASWAKGRLTISKDTSKNQVVLTMTNMDPVDTATYYCARGVPAYSHGGDLWGQGTLVTVSSASTKGPSVFPLAPSSKSTSGGTAALGCLVKDYFPEPVTVSWNSGALTSGVHTFPAVLQSSGLYSLSSVVTVPSSSLGTQTYICNVNHKPSNTKVDKKVEPKSCDKTHTCPPCPAPELLHGPSVFLFPPKPKDTLMISRTPEVTCVVVDVSDEDPEVKFNWYVDGVEVHNAKTKPREEQYNSTYRVVSVLTVLHQDWLNGKEYKCKVSNKALPKPIEKTISKAKGQPREPQVYTLPPSREEMTKNQVSLTCLVKGFYPSDIAVEWESNGQPENNYKTTPMVLDSDGSFFLYSKLTVDKSRWQQGNVFSCSVMHEALHNHYTQKSLSLSP
light: DIVMTQSPATLSLSPGERATLSCTSSQSVYHANWLSWFQQKPGQPPKLLIYWASTLAYGVPSRFSGSGSGTDFTLTISSLQPEDAATYYCAGGYGGGRYAFGQGTKVEIKRTVAAPSVFIFPPSDEQLKSGTASVVCLLNNFYPREAKVQWKVDNALQSGNSQESVTEQDSKDSTYSLSSTLTLSKADYEKHKVYACEVTHQGLSSPVTKSFNRGEC
In turn, B3 showed a Kd in [9] of 2200 nM.

B4: M103205H795-MY311/M103202L889-SK1 (antibody, human IgG1, kappa)
heavy: QVTLKESGPVLVKPTETLTLTCTVSGIDLSHDDISWVRQAPGKGLEWVGIISYAGSTYYASWAKGRLTISKDTSKNQVVLTMTNMDPVDTATYYCARGVPAYSHGGDLWGQGTLVTVSSASTKGPSVFPLAPSSKSTSGGTAALGCLVKDYFPEPVTVSWNSGALTSGVHTFPAVLQSSGLYSLSSVVTVPSSSLGTQTYICNVNHKPSNTKVDKKVEPKSCDKTHTCPPCPAPELLTGPSVFLFPPKPKDTLMISRTPEVTCVVVDVSEEDPEVKFNWYVDGVEVHNAKTKPREELYNSTYRVVSVLTVLHQDWLNGKEYKCKVSNKALPKPIEKTISKAKGQPREPQVYTLPPSREEMTKNQVSLTCLVKGFYPSDIAVEWESNGQPENNYKTTPPVLDSDGSFFLYSKLTVDKSRWQQGNVFSCSVMHEALHNHYTQKSLSLSP
light: DIVMTQSPATLSLSPGERATLSCTSSQSVYHANWLSWFQQKPGQPPKLLIYWASTLAYGVPSRFSGSGSGTDFTLTISSLQPEDAATYYCAGGYGGGRYAFGQGTKVEIKRTVAAPSVFIFPPSDEQLKSGTASVVCLLNNFYPREAKVQWKVDNALQSGNSQESVTEQDSKDSTYSLSSTLTLSKADYEKHKVYACEVTHQGLSSPVTKSFNRGEC
Take B4: the Kd in assay [9] amounted to 3400 nM.

B5: M103205H795-MY312/M103202L889-SK1 (antibody, human IgG1, kappa)
heavy: QVTLKESGPVLVKPTETLTLTCTVSGIDLSHDDISWVRQAPGKGLEWVGIISYAGSTYYASWAKGRLTISKDTSKNQVVLTMTNMDPVDTATYYCARGVPAYSHGGDLWGQGTLVTVSSASTKGPSVFPLAPSSKSTSGGTAALGCLVKDYFPEPVTVSWNSGALTSGVHTFPAVLQSSGLYSLSSVVTVPSSSLGTQTYICNVNHKPSNTKVDKKVEPKSCDKTHTCPPCPAPELLTGPSVFLFPPKPKDTLMISRTPEVTCVVVDVSEEDPEVKFNWYVDGVEVHNAKTKPREEQYNSTYRVVSVLTVLHQDWLNGKEYKCKVSNTALPKPIEKTISKAKGQPREPQVYTLPPSREEMTKNQVSLTCLVKGFYPSDIAVEWESNGQPENNYKTTPMVLDSDGSFFLYSKLTVDKSRWQQGNVFSCSVMHEALHNHYTQKSLSLSP
light: DIVMTQSPATLSLSPGERATLSCTSSQSVYHANWLSWFQQKPGQPPKLLIYWASTLAYGVPSRFSGSGSGTDFTLTISSLQPEDAATYYCAGGYGGGRYAFGQGTKVEIKRTVAAPSVFIFPPSDEQLKSGTASVVCLLNNFYPREAKVQWKVDNALQSGNSQESVTEQDSKDSTYSLSSTLTLSKADYEKHKVYACEVTHQGLSSPVTKSFNRGEC
The molecule B5 registered a Kd in assay [9] of 1500 nM.

B6: M103205H795-MY318/M103202L889-SK1 (antibody, human IgG1, kappa)
heavy: QVTLKESGPVLVKPTETLTLTCTVSGIDLSHDDISWVRQAPGKGLEWVGIISYAGSTYYASWAKGRLTISKDTSKNQVVLTMTNMDPVDTATYYCARGVPAYSHGGDLWGQGTLVTVSSASTKGPSVFPLAPSSKSTSGGTAALGCLVKDYFPEPVTVSWNSGALTSGVHTFPAVLQSSGLYSLSSVVTVPSSSLGTQTYICNVNHKPSNTKVDKKVEPKSCDKTHTCPPCPAPELLLGPSVFLFPPKPKDTLMISRTPEVTCVVVDVSEEDPEVKFNWYVDGVEVHNAKTKPREEQYNSTYRVVSVLTVLHQDWLNGKEYKCKVSNTALPKPIEKTISKAKGQPREPQVYTLPPSREEMTKNQVSLTCLVKGFYPSDIAVEWESNGQPENNYKTTPMVLDSDGSFFLYSKLTVDKSRWQQGNVFSCSVMHEALHNHYTQKSLSLSP
light: DIVMTQSPATLSLSPGERATLSCTSSQSVYHANWLSWFQQKPGQPPKLLIYWASTLAYGVPSRFSGSGSGTDFTLTISSLQPEDAATYYCAGGYGGGRYAFGQGTKVEIKRTVAAPSVFIFPPSDEQLKSGTASVVCLLNNFYPREAKVQWKVDNALQSGNSQESVTEQDSKDSTYSLSSTLTLSKADYEKHKVYACEVTHQGLSSPVTKSFNRGEC
Molecule B6 displayed a Kd in [9] of 7700 nM.
